Measured values published in article PMC3438196.

Legend:
Assay in all cases: two-hybrid; MAPPIT (mammalian two-hybrid) in intact HEK293T cells: bait on the EpoR/leptin receptor chimera, prey on gp130 fragments, pXP2d2-rPAP1-luciferase reporter; fold induction of luciferase, Epo-stimulated (10 ng/ml hEpo) over unstimulated; 6-well or 96-well calcium phosphate transfection
[1] = molecular target: Apobec3G T32E MAPPIT bait (human) (UniProt Q9HC16)
[2] = molecular target: Apobec3G W34A MAPPIT bait (human) (UniProt Q9HC16)
Apobec3G W34A MAPPIT bait (human), sequence (Q9HC16 whole entry W34A): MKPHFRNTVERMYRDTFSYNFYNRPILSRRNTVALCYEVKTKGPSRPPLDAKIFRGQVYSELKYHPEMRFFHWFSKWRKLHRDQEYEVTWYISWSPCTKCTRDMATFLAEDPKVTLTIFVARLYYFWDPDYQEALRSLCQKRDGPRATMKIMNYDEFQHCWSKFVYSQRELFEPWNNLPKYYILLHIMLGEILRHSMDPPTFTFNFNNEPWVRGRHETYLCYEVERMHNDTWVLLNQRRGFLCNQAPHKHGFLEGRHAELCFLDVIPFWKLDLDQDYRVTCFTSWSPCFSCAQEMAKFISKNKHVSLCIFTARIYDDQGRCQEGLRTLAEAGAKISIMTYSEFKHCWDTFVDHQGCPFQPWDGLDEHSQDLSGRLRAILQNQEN

[3] = molecular target: Apobec3G R11S MAPPIT bait (human) (UniProt Q9HC16)
Apobec3G R11S MAPPIT bait (human), sequence (Q9HC16 whole entry R11S): as the sequence (Q9HC16 whole entry W34A) above, with R11S, A34W counted along it

[4] = molecular target: Apobec3G K99D MAPPIT bait (human) (UniProt Q9HC16)
Apobec3G K99D MAPPIT bait (human), sequence (Q9HC16 whole entry K99D): as the sequence (Q9HC16 whole entry W34A) above, with A34W, K99D counted along it

[5] = molecular target: Apobec3G QE132-133AA MAPPIT bait (human) (UniProt Q9HC16)
Apobec3G QE132-133AA MAPPIT bait (human), sequence (Q9HC16 whole entry Q132A/E133A): as the sequence (Q9HC16 whole entry W34A) above, with A34W, Q132A, E133A counted along it

[6] = molecular target: Apobec3G P129A MAPPIT bait (human) (UniProt Q9HC16)
Apobec3G P129A MAPPIT bait (human), sequence (Q9HC16 whole entry P129A): as the sequence (Q9HC16 whole entry W34A) above, with A34W, P129A counted along it

[7] = molecular target: Apobec3G R55A MAPPIT bait (human) (UniProt Q9HC16)
Apobec3G R55A MAPPIT bait (human), sequence (Q9HC16 whole entry R55A): as the sequence (Q9HC16 whole entry W34A) above, with A34W, R55A counted along it

[8] = molecular target: Apobec3G Y19A MAPPIT bait (human) (UniProt Q9HC16)
Apobec3G Y19A MAPPIT bait (human), sequence (Q9HC16 whole entry Y19A): as the sequence (Q9HC16 whole entry W34A) above, with Y19A, A34W counted along it

[9] = molecular target: Apobec3G LS27-28AA MAPPIT bait (human) (UniProt Q9HC16)
Apobec3G LS27-28AA MAPPIT bait (human), sequence (Q9HC16 whole entry L27A/S28A): as the sequence (Q9HC16 whole entry W34A) above, with L27A, S28A, A34W counted along it

[10] = molecular target: Apobec3G D128K MAPPIT bait (human) (UniProt Q9HC16)
Apobec3G D128K MAPPIT bait (human), sequence (Q9HC16 whole entry D128K): as the sequence (Q9HC16 whole entry W34A) above, with A34W, D128K counted along it

[11] = molecular target: Apobec3G E110K MAPPIT bait (human) (UniProt Q9HC16)
Apobec3G E110K MAPPIT bait (human), sequence (Q9HC16 whole entry E110K): as the sequence (Q9HC16 whole entry W34A) above, with A34W, E110K counted along it

[12] = molecular target: Apobec3G R136A MAPPIT bait (human) (UniProt Q9HC16)
Apobec3G R136A MAPPIT bait (human), sequence (Q9HC16 whole entry R136A): as the sequence (Q9HC16 whole entry W34A) above, with A34W, R136A counted along it

[13] = molecular target: Apobec3G Y124A MAPPIT bait (human) (UniProt Q9HC16)
Apobec3G Y124A MAPPIT bait (human), sequence (Q9HC16 whole entry Y124A): as the sequence (Q9HC16 whole entry W34A) above, with A34W, Y124A counted along it

[14] = molecular target: Apobec3G RD102-103EK MAPPIT bait (human) (UniProt Q9HC16)
Apobec3G RD102-103EK MAPPIT bait (human), sequence (Q9HC16 whole entry R102E/D103K): as the sequence (Q9HC16 whole entry W34A) above, with A34W, R102E, D103K counted along it

[15] = molecular target: Apobec3G D128H MAPPIT bait (human) (UniProt Q9HC16)
Apobec3G D128H MAPPIT bait (human), sequence (Q9HC16 whole entry D128H): as the sequence (Q9HC16 whole entry W34A) above, with A34W, D128H counted along it

[16] = molecular target: Apobec3G N31S MAPPIT bait (human) (UniProt Q9HC16)
Apobec3G N31S MAPPIT bait (human), sequence (Q9HC16 whole entry N31S): as the sequence (Q9HC16 whole entry W34A) above, with N31S, A34W counted along it

Apobec3G T32E MAPPIT bait (human), sequence (Q9HC16 whole entry T32E): as the sequence (Q9HC16 whole entry W34A) above, with T32E, A34W counted along it

## Gagpol MAPPIT prey (pMG2-Gagpol) (natural protein)
[1]
  MAPPIT signal, % of WT: 81 % of WT
[2]
  MAPPIT signal, % of WT: 50 % of WT
[3]
  MAPPIT signal, % of WT: 83 % of WT
[4]
  MAPPIT signal, % of WT: 96 % of WT
[5]
  MAPPIT signal, % of WT: 80 % of WT
[6]
  MAPPIT signal, % of WT: 70 % of WT
[7]
  MAPPIT signal, % of WT: 64 % of WT
[8]
  MAPPIT signal, % of WT: 36 % of WT
[9]
  MAPPIT signal, % of WT: 48 % of WT
[10]
  MAPPIT signal, % of WT: 98 % of WT
[11]
  MAPPIT signal, % of WT: 84 % of WT
[12]
  MAPPIT signal, % of WT: 48 % of WT
[13]
  MAPPIT signal, % of WT: 61 % of WT
[14]
  MAPPIT signal, % of WT: 85 % of WT
[15]
  MAPPIT signal, % of WT: 60 % of WT
[16]
  MAPPIT signal, % of WT: 78 % of WT
